This series deals with Escherichia coli TOP10. The experiment in a line: shrunken log2 fold change of peptide-encoding DNA abundance (4.5 h post-induction vs induction); higher = less antimicrobial activity (less host growth inhibition). To be noted: time post-induction: 4.5 h; library: site-saturation at positions 5, 18, 19, 20.
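Further: peptides expressed intracellularly from a pBAD plasmid library in pooled LB shake-flask culture, induced with 0.3% L-arabinose, DNA abundance read by NGS, three biological replicates, DESeq2 with apeglm shrinkage.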

RRIRARPPRLPRPRPRPIITPRP: the “shrunken log2 fold change” value was -0.298.

As to RRIRIRPPRLPRPRPRPKNQPRP, the “shrunken log2 fold change” value is -0.359. The result for RRIRGRPPRLPRPRPRPQPLPRP reads 0.45. The figure for RRIRDRPPRLPRPRPRPIHLPRP is -0.0597; for RRIRPRPPRLPRPRPRPDSKPRP it is -0.238; for RRIRARPPRLPRPRPRPHVIPRP it is 0.0726.

As for RRIRSRPPRLPRPRPRPCRIPRP, the “shrunken log2 fold change” value was -0.263. Consider RRIRFRPPRLPRPRPRPNAYPRP, for which the “shrunken log2 fold change” value is -0.347. On to RRIRERPPRLPRPRPRPSKEPRP, for which the “shrunken log2 fold change” value was -0.0565.

For the sequence RRIRTRPPRLPRPRPRPVIGPRP, the “shrunken log2 fold change” value came to 0.13. As for RRIRFRPPRLPRPRPRPWGIPRP, the “shrunken log2 fold change” value was -0.0116. The figure for RRIRFRPPRLPRPRPRPVPHPRP is -0.342; for RRIRFRPPRLPRPRPRPETEPRP it is -0.0257; for RRIRNRPPRLPRPRPRPQWPPRP it is 0.00622. Turning to RRIRARPPRLPRPRPRPRRRPRP, the “shrunken log2 fold change” value turned out to be 0.888.

As to RRIRFRPPRLPRPRPRPICFPRP, the “shrunken log2 fold change” value was -0.293. The figure for RRIRCRPPRLPRPRPRPTEDPRP is -0.0639; for RRIRKRPPRLPRPRPRPEKNPRP it is 0.987.

In the case of RRIRHRPPRLPRPRPRPYNSPRP, the “shrunken log2 fold change” value was determined as 0.0224. RRIRARPPRLPRPRPRPDSPPRP: the “shrunken log2 fold change” value is 0.342. The result for RRIRTRPPRLPRPRPRPSGHPRP reads -0.17; that for RRIRYRPPRLPRPRPRPRANPRP, -0.109; that for RRIRVRPPRLPRPRPRPWMNPRP, -0.00133. The figure for RRIRWRPPRLPRPRPRPTRDPRP is 0.0468. On to RRIRLRPPRLPRPRPRPCPLPRP, for which the “shrunken log2 fold change” value is -0.333. RRIRGRPPRLPRPRPRPCEYPRP: the “shrunken log2 fold change” value was 0.0669. The figure for RRIRVRPPRLPRPRPRPLVTPRP is -0.348; for RRIRNRPPRLPRPRPRPFQMPRP it is -0.673; for RRIRERPPRLPRPRPRPGIQPRP it is -0.398. On to RRIRLRPPRLPRPRPRPWTVPRP, for which the “shrunken log2 fold change” value is -0.176. RRIRGRPPRLPRPRPRPWLLPRP: the “shrunken log2 fold change” value was 0.216. The result for RRIRPRPPRLPRPRPRPVVCPRP reads 0.53; that for RRIRWRPPRLPRPRPRPQESPRP, 0.00801; that for RRIRPRPPRLPRPRPRPCKLPRP, -0.609.

For RRIRTRPPRLPRPRPRPASCPRP, the “shrunken log2 fold change” value came out at 0.066.

As to RRIRWRPPRLPRPRPRPQVRPRP, the “shrunken log2 fold change” value was 0.037. The result for RRIRSRPPRLPRPRPRPEDGPRP reads 0.0117; that for RRIRCRPPRLPRPRPRPKWLPRP, -0.0375. The figure for RRIRTRPPRLPRPRPRPINSPRP is -0.875; for RRIRMRPPRLPRPRPRPRAVPRP it is 0.989; for RRIRVRPPRLPRPRPRPIGPPRP it is -0.0936. For RRIRERPPRLPRPRPRPRMLPRP, the “shrunken log2 fold change” value is -0.0942. The figure for RRIRIRPPRLPRPRPRPCDWPRP is 0.00175; for RRIRARPPRLPRPRPRPKNDPRP it is 0.222.

Regarding RRIRPRPPRLPRPRPRPVQHPRP, the “shrunken log2 fold change” value worked out at 0.278. The result for RRIRRRPPRLPRPRPRPKRCPRP reads -0.131; that for RRIRTRPPRLPRPRPRPLIRPRP, -0.133; that for RRIRGRPPRLPRPRPRPNELPRP, 0.552.

With RRIRSRPPRLPRPRPRPETVPRP, the “shrunken log2 fold change” value stood at 0.211. As for RRIRNRPPRLPRPRPRPMSMPRP, the “shrunken log2 fold change” value was -0.0143. As for RRIRIRPPRLPRPRPRPGCRPRP, the “shrunken log2 fold change” value was determined as 0.0314. In the case of RRIRTRPPRLPRPRPRPTSDPRP, the “shrunken log2 fold change” value came to 0.0524. RRIRARPPRLPRPRPRPFTTPRP: the “shrunken log2 fold change” value is -0.0831.

Regarding RRIRQRPPRLPRPRPRPGRGPRP, the “shrunken log2 fold change” value was 0.333.

For RRIRIRPPRLPRPRPRPKPKPRP, the “shrunken log2 fold change” value came to 0.161. As for RRIRKRPPRLPRPRPRPDERPRP, the “shrunken log2 fold change” value was -0.00101. With RRIRQRPPRLPRPRPRPEAMPRP, the “shrunken log2 fold change” value was 0.00408. Regarding RRIRARPPRLPRPRPRPCLSPRP, the “shrunken log2 fold change” value was found to be 0.233. In the case of RRIRPRPPRLPRPRPRPMELPRP, the “shrunken log2 fold change” value is -0.00106. The result for RRIRMRPPRLPRPRPRPLQPPRP reads 0.737. As for RRIRQRPPRLPRPRPRPIQGPRP, the “shrunken log2 fold change” value was -0.0863.

With RRIRNRPPRLPRPRPRPTETPRP, the “shrunken log2 fold change” value was -0.00947.

For RRIRDRPPRLPRPRPRPNYLPRP, the “shrunken log2 fold change” value was -0.126. The figure for RRIRDRPPRLPRPRPRPVHTPRP is -0.00587; for RRIRPRPPRLPRPRPRPSASPRP it is 2.33; for RRIRHRPPRLPRPRPRPCFIPRP it is -0.385. Consider RRIRQRPPRLPRPRPRPPDEPRP, for which the “shrunken log2 fold change” value turned out to be 0.0836. The result for RRIRHRPPRLPRPRPRPIWAPRP reads 0.0355.

As to RRIRMRPPRLPRPRPRPPPHPRP, the “shrunken log2 fold change” value came out at 1.62. The figure for RRIRLRPPRLPRPRPRPPYFPRP is -0.247. Take RRIRWRPPRLPRPRPRPHKLPRP: the “shrunken log2 fold change” value was -0.135.

As for RRIRLRPPRLPRPRPRPANSPRP, the “shrunken log2 fold change” value was -0.202.

Turning to RRIRFRPPRLPRPRPRPYRHPRP, the “shrunken log2 fold change” value was -1.08. The figure for RRIRKRPPRLPRPRPRPTHWPRP is 0.796; for RRIRIRPPRLPRPRPRPLRVPRP it is 0.291.

As to RRIRQRPPRLPRPRPRPWGMPRP, the “shrunken log2 fold change” value was -0.0405.

With RRIRLRPPRLPRPRPRPGKWPRP, the “shrunken log2 fold change” value came to 0.121. The result for RRIRCRPPRLPRPRPRPETYPRP reads -0.34. The result for RRIRTRPPRLPRPRPRPQCYPRP reads -0.256; that for RRIRPRPPRLPRPRPRPPVHPRP, -0.0329.

As for RRIRIRPPRLPRPRPRPWKIPRP, the “shrunken log2 fold change” value was -0.0311. The result for RRIRFRPPRLPRPRPRPFHDPRP reads -0.149; that for RRIRGRPPRLPRPRPRPFLRPRP, -0.0587. With RRIRWRPPRLPRPRPRPRPSPRP, the “shrunken log2 fold change” value worked out at 0.766. Regarding RRIRHRPPRLPRPRPRPIPLPRP, the “shrunken log2 fold change” value is -0.193. The figure for RRIRIRPPRLPRPRPRPFAGPRP is 0.0391. RRIRRRPPRLPRPRPRPEHKPRP: the “shrunken log2 fold change” value came out at 0.193.

Regarding RRIRWRPPRLPRPRPRPPKYPRP, the “shrunken log2 fold change” value is -0.163.

Take RRIRGRPPRLPRPRPRPPFGPRP: the “shrunken log2 fold change” value came to 0.738. The result for RRIRSRPPRLPRPRPRPFSGPRP reads -0.134; that for RRIRFRPPRLPRPRPRPISLPRP, -0.452; that for RRIRQRPPRLPRPRPRPMMVPRP, -0.0145.

Consider RRIRARPPRLPRPRPRPEKGPRP, for which the “shrunken log2 fold change” value was -0.0434. The result for RRIRDRPPRLPRPRPRPPYDPRP reads -0.00841. The result for RRIRYRPPRLPRPRPRPIYKPRP reads -0.396; that for RRIRYRPPRLPRPRPRPFYDPRP, -0.708; that for RRIRYRPPRLPRPRPRPKQSPRP, -0.156. On to RRIRDRPPRLPRPRPRPQKHPRP, for which the “shrunken log2 fold change” value is -0.108.

As for RRIRIRPPRLPRPRPRPNMEPRP, the “shrunken log2 fold change” value is -0.509.

Regarding RRIRKRPPRLPRPRPRPLDVPRP, the “shrunken log2 fold change” value was determined as 0.0117. Consider RRIRYRPPRLPRPRPRPQWRPRP, for which the “shrunken log2 fold change” value worked out at 0.0697. On to RRIRMRPPRLPRPRPRPEVCPRP, for which the “shrunken log2 fold change” value is 0.0476.

In the case of RRIRFRPPRLPRPRPRPCNSPRP, the “shrunken log2 fold change” value was -0.0848. On to RRIRMRPPRLPRPRPRPFADPRP, for which the “shrunken log2 fold change” value came to 2.11. RRIRTRPPRLPRPRPRPCMVPRP: the “shrunken log2 fold change” value was -0.576. The result for RRIRIRPPRLPRPRPRPLCLPRP reads -0.736; that for RRIRRRPPRLPRPRPRPKCAPRP, 0.884; that for RRIRFRPPRLPRPRPRPLYYPRP, -0.885. For the sequence RRIRDRPPRLPRPRPRPFQSPRP, the “shrunken log2 fold change” value came out at 0.0407. The figure for RRIRRRPPRLPRPRPRPLYAPRP is 0.0633; for RRIRIRPPRLPRPRPRPLPQPRP it is -0.247. For the sequence RRIRPRPPRLPRPRPRPHPPPRP, the “shrunken log2 fold change” value was found to be 0.397. Consider RRIRSRPPRLPRPRPRPQTVPRP, for which the “shrunken log2 fold change” value is -0.26. Take RRIRVRPPRLPRPRPRPAQGPRP: the “shrunken log2 fold change” value is 0.00544.

Consider RRIRHRPPRLPRPRPRPDFNPRP, for which the “shrunken log2 fold change” value was -0.607. The result for RRIRVRPPRLPRPRPRPWCVPRP reads -0.504. Turning to RRIRERPPRLPRPRPRPCRQPRP, the “shrunken log2 fold change” value was -0.157. The result for RRIRCRPPRLPRPRPRPDIAPRP reads 0.38. In the case of RRIRKRPPRLPRPRPRPLHFPRP, the “shrunken log2 fold change” value is -0.258.

As for RRIRKRPPRLPRPRPRPRLGPRP, the “shrunken log2 fold change” value was determined as 0.587. In the case of RRIRLRPPRLPRPRPRPSTYPRP, the “shrunken log2 fold change” value was -0.205.

Consider RRIRLRPPRLPRPRPRPYPDPRP, for which the “shrunken log2 fold change” value is -0.598. Consider RRIRKRPPRLPRPRPRPHNCPRP, for which the “shrunken log2 fold change” value is 0.0806. On to RRIRCRPPRLPRPRPRPLGEPRP, for which the “shrunken log2 fold change” value stood at 0.277.

For RRIRYRPPRLPRPRPRPCVTPRP, the “shrunken log2 fold change” value is -0.000683.

These data come from the supplement of paper PMC9112550, “Optimization of the antimicrobial peptide Bac7 by deep mutational scanning” (BMC Biology, 2022).
